Test results as given in patent publication US20250092426, “CAS ENDONUCLEASES AND RELATED METHODS” (Flagship Pioneering Innovations VII, LLC, published 2025).

Target: T1, CasEnd-22 (synthetic construct)
T1 chain: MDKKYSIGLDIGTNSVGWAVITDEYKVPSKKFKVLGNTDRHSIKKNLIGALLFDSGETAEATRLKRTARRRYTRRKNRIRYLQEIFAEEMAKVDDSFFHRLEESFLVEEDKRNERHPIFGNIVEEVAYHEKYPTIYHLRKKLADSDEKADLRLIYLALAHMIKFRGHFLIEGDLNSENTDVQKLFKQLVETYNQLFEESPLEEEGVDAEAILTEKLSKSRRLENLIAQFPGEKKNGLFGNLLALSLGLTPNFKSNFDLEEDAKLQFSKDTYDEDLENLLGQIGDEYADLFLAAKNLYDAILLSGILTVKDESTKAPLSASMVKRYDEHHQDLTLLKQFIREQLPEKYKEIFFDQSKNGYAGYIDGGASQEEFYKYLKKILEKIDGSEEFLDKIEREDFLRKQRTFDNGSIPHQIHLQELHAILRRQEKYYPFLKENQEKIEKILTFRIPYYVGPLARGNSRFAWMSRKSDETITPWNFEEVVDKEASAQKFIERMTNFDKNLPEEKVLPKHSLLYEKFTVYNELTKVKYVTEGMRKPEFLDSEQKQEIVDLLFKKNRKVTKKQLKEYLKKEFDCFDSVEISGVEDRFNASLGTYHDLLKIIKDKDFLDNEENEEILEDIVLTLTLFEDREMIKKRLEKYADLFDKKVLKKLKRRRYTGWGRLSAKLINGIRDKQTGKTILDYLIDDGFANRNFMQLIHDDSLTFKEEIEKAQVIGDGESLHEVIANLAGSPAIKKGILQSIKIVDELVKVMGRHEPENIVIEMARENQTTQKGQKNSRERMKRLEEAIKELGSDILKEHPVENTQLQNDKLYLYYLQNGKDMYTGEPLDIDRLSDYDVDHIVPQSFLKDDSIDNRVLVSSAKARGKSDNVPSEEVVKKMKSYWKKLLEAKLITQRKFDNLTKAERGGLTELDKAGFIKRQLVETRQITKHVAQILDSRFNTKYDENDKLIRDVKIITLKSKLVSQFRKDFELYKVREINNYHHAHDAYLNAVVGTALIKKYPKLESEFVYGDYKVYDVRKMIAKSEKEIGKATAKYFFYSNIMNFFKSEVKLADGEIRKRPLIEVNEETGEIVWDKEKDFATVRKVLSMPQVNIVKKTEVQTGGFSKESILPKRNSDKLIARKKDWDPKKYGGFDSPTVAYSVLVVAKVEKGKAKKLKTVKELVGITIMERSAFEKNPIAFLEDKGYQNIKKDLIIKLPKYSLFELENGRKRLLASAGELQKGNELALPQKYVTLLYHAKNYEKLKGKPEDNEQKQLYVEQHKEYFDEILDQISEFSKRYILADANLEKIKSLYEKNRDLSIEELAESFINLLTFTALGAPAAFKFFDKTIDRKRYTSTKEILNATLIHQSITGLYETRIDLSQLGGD
Assay: cell_activity; +++; HEK293T; PAM not stated
Method in brief: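 BFP-to-GFP conversion via reverse transcriptase fusion with each Cas endonuclease plus template RNA: 200 ng of each plasmid nucleofected into 250,000 BFP-expressing HEK293T cells (program DS-150). Percent GFP+ cells by flow cytometry at day 4 measured editing.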

B1: BFP-to-GFP template RNA ; BFP reporter protospacer (ssRNA ; dsDNA)
RNA: GCCGAAGCACUGCACGCCGUGUUUUAGAGCUAGAAAUAGCAAGUUAAAAUAAGGCUAGUCCGUUAUCAACUUGAAAAAGUGGCACCGAGUCGGUGCACCCUGACGUACGGCGUGCAGUGCUU
DNA 1: GCCGAAGCACTGCACGCCGT
DNA 2: ACGGCGTGCAGTGCTTCGGC
For B1, the activity was ≥ 100 % of reference.
